Data: US20230250154A1 (CYTONICS, published 2023)

T1: ADAMTS4 (human, UniProt O75173 213-685, limits assumed)
T1 sequence (looked up): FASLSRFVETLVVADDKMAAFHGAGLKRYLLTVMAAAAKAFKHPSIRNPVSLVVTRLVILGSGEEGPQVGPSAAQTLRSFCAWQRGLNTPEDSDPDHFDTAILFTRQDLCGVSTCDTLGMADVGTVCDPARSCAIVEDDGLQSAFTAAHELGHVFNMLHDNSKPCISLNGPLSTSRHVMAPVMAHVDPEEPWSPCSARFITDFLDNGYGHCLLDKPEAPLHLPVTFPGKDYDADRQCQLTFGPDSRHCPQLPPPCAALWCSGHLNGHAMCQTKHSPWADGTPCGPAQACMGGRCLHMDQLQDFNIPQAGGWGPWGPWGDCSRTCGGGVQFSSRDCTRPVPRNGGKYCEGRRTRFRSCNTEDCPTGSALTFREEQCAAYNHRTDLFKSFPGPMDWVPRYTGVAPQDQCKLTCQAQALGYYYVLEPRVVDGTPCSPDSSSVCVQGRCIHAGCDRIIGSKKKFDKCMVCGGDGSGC

T2: MMP1 (human, UniProt P03956 100-469, limits assumed)
T2 sequence (looked up): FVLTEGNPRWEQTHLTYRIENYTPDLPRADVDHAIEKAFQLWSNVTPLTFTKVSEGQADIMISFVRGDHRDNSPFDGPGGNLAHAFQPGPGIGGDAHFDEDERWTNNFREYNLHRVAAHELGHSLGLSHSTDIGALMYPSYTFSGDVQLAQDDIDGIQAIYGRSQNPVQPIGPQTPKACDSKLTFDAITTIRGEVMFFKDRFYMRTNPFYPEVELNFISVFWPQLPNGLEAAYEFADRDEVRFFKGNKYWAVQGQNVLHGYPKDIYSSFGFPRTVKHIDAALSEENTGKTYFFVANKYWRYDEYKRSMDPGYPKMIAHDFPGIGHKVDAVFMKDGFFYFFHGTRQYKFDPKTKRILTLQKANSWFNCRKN

T3: MMP2 (human, UniProt P08253 110-660, limits assumed)
T3 sequence (looked up): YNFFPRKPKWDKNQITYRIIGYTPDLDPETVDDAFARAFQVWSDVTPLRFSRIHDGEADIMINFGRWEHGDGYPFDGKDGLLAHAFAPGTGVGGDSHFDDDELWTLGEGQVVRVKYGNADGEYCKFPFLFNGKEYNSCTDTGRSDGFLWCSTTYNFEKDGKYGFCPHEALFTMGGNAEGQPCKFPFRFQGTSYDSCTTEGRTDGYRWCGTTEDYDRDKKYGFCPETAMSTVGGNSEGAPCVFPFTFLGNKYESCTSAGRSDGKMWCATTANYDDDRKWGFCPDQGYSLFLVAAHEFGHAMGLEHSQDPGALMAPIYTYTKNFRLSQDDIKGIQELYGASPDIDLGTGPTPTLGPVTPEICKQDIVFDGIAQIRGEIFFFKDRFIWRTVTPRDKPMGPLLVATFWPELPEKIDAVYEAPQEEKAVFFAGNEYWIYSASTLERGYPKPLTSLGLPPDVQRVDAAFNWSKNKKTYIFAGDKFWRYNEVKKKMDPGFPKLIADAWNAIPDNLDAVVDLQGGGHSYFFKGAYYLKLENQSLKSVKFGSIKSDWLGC

T4: ADAMTS5 (human, UniProt Q9UNA0 262-622, limits assumed)
T4 sequence (looked up): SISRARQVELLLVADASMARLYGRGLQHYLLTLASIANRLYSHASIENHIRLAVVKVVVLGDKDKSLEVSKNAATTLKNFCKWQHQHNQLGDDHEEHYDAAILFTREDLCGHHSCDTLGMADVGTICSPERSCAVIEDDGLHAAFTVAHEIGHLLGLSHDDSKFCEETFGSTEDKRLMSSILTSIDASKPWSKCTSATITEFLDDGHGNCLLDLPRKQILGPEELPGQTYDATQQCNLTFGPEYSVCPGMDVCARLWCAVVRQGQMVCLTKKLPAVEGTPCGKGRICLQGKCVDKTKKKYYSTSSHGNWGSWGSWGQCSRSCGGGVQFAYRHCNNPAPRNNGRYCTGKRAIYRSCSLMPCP

T5: MMP7 (UniProt P09237 95-267, limits assumed)
T5 sequence (looked up): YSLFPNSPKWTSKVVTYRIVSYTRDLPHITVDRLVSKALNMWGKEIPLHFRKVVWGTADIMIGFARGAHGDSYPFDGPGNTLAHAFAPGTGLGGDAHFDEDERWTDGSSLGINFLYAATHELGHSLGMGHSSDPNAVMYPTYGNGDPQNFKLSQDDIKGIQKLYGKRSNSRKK

T6: Cathepsin G (UniProt P08311 21-244)
T6 sequence (looked up): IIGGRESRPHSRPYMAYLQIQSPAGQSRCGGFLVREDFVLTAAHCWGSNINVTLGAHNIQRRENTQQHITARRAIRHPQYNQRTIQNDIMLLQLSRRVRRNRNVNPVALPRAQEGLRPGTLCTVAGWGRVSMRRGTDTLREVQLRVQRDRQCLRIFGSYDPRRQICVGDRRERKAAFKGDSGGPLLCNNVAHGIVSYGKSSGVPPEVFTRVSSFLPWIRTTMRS


Legend:
Assay in all cases: cell-based or functional assay
[1] = target: MMP13 (human, UniProt P45452 104-471, limits assumed)
[2] = target: T1, ADAMTS4
[3] = target: T2, MMP1
[4] = target: T3, MMP2
[5] = target: T4, ADAMTS5
[6] = target: T5, MMP7
[7] = target: Elastase
[8] = target: MMP3 (human, UniProt P08254 100-477, limits assumed)
[9] = target: T6, Cathepsin G
[10] = target: MMP8 (human, UniProt P22894 101-467, limits assumed)
[11] = target: MMP9 (human, UniProt P14780 107-707, limits assumed)
Chain of MMP9 (P14780 107-707 limits assumed): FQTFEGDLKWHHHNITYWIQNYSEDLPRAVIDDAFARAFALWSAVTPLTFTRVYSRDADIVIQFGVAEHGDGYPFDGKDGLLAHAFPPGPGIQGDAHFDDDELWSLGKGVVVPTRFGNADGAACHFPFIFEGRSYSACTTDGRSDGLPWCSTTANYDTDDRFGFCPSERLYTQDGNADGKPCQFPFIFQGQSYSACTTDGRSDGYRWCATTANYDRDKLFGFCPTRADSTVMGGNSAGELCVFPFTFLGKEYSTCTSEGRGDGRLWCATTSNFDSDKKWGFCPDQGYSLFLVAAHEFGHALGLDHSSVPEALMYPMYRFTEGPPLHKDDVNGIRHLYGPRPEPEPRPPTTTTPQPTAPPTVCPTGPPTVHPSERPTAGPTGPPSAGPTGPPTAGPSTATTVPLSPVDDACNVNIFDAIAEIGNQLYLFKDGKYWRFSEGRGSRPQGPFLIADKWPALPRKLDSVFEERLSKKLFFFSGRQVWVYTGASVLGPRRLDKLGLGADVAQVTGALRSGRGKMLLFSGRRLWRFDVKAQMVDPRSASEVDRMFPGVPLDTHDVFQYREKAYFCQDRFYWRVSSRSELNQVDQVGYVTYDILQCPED

Chain of MMP8 (P22894 101-467 limits assumed): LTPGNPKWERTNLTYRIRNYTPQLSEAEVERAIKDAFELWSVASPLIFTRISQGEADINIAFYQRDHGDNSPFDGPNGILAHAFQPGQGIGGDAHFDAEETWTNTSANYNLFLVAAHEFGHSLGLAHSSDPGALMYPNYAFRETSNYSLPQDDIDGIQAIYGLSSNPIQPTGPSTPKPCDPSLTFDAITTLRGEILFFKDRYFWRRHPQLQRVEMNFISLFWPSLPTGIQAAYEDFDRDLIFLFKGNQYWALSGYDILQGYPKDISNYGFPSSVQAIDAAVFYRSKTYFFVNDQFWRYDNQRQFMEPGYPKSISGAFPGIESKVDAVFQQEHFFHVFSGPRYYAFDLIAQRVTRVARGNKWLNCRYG
Chain of MMP3 (P08254 100-477 limits assumed): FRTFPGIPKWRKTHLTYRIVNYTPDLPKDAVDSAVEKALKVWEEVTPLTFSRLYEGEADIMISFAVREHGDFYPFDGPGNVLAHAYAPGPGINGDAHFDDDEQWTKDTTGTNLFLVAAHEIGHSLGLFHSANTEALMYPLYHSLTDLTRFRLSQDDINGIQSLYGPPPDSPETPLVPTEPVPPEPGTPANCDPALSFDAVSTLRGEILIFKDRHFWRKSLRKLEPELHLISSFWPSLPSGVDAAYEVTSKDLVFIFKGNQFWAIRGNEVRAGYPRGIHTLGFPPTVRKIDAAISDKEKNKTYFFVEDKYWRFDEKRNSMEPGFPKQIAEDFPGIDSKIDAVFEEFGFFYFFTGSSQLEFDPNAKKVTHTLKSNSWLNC

Binder | Protease Inhibition (% of WT) [1] | Protease Inhibition (% of WT) [2] | Protease Inhibition (% of WT) [3] | Protease Inhibition (% of WT) [4] | Protease Inhibition (% of WT) [5] | Protease Inhibition (% of WT) [6] | Protease Inhibition (% of WT) [7] | Protease Inhibition (% of WT) [8] | Protease Inhibition (% of WT) [9] | Protease Inhibition (% of WT) [10] | Protease Inhibition (% of WT) [11]
Variant A2M, bait region SEQ ID NO 13 (other) SVSGKPQYMVLVPSLLHTETTEKGCVLLSYLNETVTVSASLESVRGNRSLFTDLEAENDVLHCVAFAVPKSSSNEEVMFLTVQVKGPTQEFKKRTTVMVKNEDSLVFVQTDKSIYKPGQTVKFRVVSMDENFHPLNELIPLVYIQDPKGNRIAQWQSFQLEGGLKQFSFPLSSEPFQGSYKVVVQKKSGGRTEHPFTVEEFVLPKFEVQVTVPKIITILEEEMNVSVCGLYTYGKPVPGHVTVSICRKYSDASDCHGEDSQAFCEKFSGQLNSHGCFYQQVKTKVFQLKRKEYEMKLHTEAQIQEEGTVVELTGRQSSEITRTITKLSFVKVDSHFRQGIPFFGQVRLVDGKGVPIPNKVIFIRGNEANYYSNATTDEHGLVQFSINTTNVMGTSLTVRVNYKDRSPCYGYQWVSEEHEEAHHTAYLVFSPSKSFVHLEPMSHELPCGHTQTVQAHYILNGGTLLGLKKLSFYYLIMAKGGIVRTGTHGLLVKQEDMKGHFSISIPVKSDIAPVARLLIYAVLPTGDVIGDSAKYDVENCLANKVDLSFSPSQSLPASHAHLRVTAAPQSVCALRAVDQSVLLMKPDAELSASSVYNLLPEKDLTGFPGPLNDQDDEDCINRHNVYINGITYTPVSSTNEKDMYSFLEDMGLKAFTNSKIRKPKMCPQLEHGPRYLTAEGEGEGIPENFFGVSEDLVVQISELEGRGSVEEPHTKLRKYFPETWIWDLVVVNSAGVAEVGVTVPDTITEWKAGAFCLSEDAGLGISSTASLRAFQPFFVELTMPYSVIRGEAFTLKATVLNYLPKCIRVSVQLEASPAFLAVPVEKEQAPHCICANGRQTVSWAVTPKSLGNVNFTVSAEALESQELCGTEVPSVPEHGRKDTVIKPLLVEPEGLEKETTFNSLLCPSGGEVSEELSLKLPPNVVEESARASVSVLGDILGSAMQNTQNLLQMPYGCGEQNMVLFAPNIYVLDYLNETQQLTPEIKSKAIGYLNTGYQRQLNYKHYDGSYSTFGERYGRNQGNTWLTAFVLKTFAQARAYIFIDEAHITQALIWLSQRQKDNGCFRSSGSLLNNAIKGGVEDEVTLSAYITIALLEIPLTVTHPVVRNALFCLESAWKTAQEGDHGSHVYTKALLAYAFALAGNQDKRKEVLKSLNEEAVKKDNSVHWERPQKPKAPVGHFYEPQAPSAEVEMTSYVLLAYLTAQPAPTSEDLTSATNIVKWITKQQNAQGGFSSTQDTVVALHALSKYGAATFTRTGKAAQVTIQSSGTFSSKFQVDNNNRLLLQQVSLPELPGEYSMKVTGEGCVYLQTSLKYNILPEKEEFPFALGVQTLPQTCDEPKAHTSFQISLSVSYTGSRSASNMAIVDVKMVSGFIPLKPTVKMLERSNHVSRTEVSSNHVLIYLDKVSNQTLSLFFTVLQDVPVRDLKPAIVKVYDYYETDEFAIAEYNAPCSKDLGNADYKDDDDKGASHHHHHH | 76 % of WT | 290 % of WT | 91 % of WT | 65 % of WT | 194 % of WT | 128 % of WT | 97 % of WT | 189 % of WT | 54 % of WT | 81 % of WT | 71 % of WT
Variant A2M, bait region SEQ ID NO 14 (other) SVSGKPQYMVLVPSLLHTETTEKGCVLLSYLNETVTVSASLESVRGNRSLFTDLEAENDVLHCVAFAVPKSSSNEEVMFLTVQVKGPTQEFKKRTTVMVKNEDSLVFVQTDKSIYKPGQTVKFRVVSMDENFHPLNELIPLVYIQDPKGNRIAQWQSFQLEGGLKQFSFPLSSEPFQGSYKVVVQKKSGGRTEHPFTVEEFVLPKFEVQVTVPKIITILEEEMNVSVCGLYTYGKPVPGHVTVSICRKYSDASDCHGEDSQAFCEKFSGQLNSHGCFYQQVKTKVFQLKRKEYEMKLHTEAQIQEEGTVVELTGRQSSEITRTITKLSFVKVDSHFRQGIPFFGQVRLVDGKGVPIPNKVIFIRGNEANYYSNATTDEHGLVQFSINTTNVMGTSLTVRVNYKDRSPCYGYQWVSEEHEEAHHTAYLVFSPSKSFVHLEPMSHELPCGHTQTVQAHYILNGGTLLGLKKLSFYYLIMAKGGIVRTGTHGLLVKQEDMKGHFSISIPVKSDIAPVARLLIYAVLPTGDVIGDSAKYDVENCLANKVDLSFSPSQSLPASHAHLRVTAAPQSVCALRAVDQSVLLMKPDAELSASSVYNLLPEKDLTGFPGPLNDQDDEDCINRHNVYINGITYTPVSSTNEKDMYSFLEDMGLKAFTNSKIRKPKMCPQLEHGPEGEGEGEGIPRYLTAENFFGVSEDLVVQISELEGRGSVEEPHTKLRKYFPETWIWDLVVVNSAGVAEVGVTVPDTITEWKAGAFCLSEDAGLGISSTASLRAFQPFFVELTMPYSVIRGEAFTLKATVLNYLPKCIRVSVQLEASPAFLAVPVEKEQAPHCICANGRQTVSWAVTPKSLGNVNFTVSAEALESQELCGTEVPSVPEHGRKDTVIKPLLVEPEGLEKETTFNSLLCPSGGEVSEELSLKLPPNVVEESARASVSVLGDILGSAMQNTQNLLQMPYGCGEQNMVLFAPNIYVLDYLNETQQLTPEIKSKAIGYLNTGYQRQLNYKHYDGSYSTFGERYGRNQGNTWLTAFVLKTFAQARAYIFIDEAHITQALIWLSQRQKDNGCFRSSGSLLNNAIKGGVEDEVTLSAYITIALLEIPLTVTHPVVRNALFCLESAWKTAQEGDHGSHVYTKALLAYAFALAGNQDKRKEVLKSLNEEAVKKDNSVHWERPQKPKAPVGHFYEPQAPSAEVEMTSYVLLAYLTAQPAPTSEDLTSATNIVKWITKQQNAQGGFSSTQDTVVALHALSKYGAATFTRTGKAAQVTIQSSGTFSSKFQVDNNNRLLLQQVSLPELPGEYSMKVTGEGCVYLQTSLKYNILPEKEEFPFALGVQTLPQTCDEPKAHTSFQISLSVSYTGSRSASNMAIVDVKMVSGFIPLKPTVKMLERSNHVSRTEVSSNHVLIYLDKVSNQTLSLFFTVLQDVPVRDLKPAIVKVYDYYETDEFAIAEYNAPCSKDLGNADYKDDDDKGASHHHHHH | 66 % of WT | 236 % of WT | 60 % of WT | 10 % of WT | 105 % of WT | 61 % of WT | 67 % of WT | 169 % of WT | 99 % of WT | 39 % of WT | 14 % of WT
